In the RNAGym collection of RNA variant scans (doi:10.7554/elife.80360) one finds self-cleavage data, which are given here for 39 variants.

B1: CPEB3 Ribozyme (parent)
chain: GGGGGCCACAGCAGAAGCGUUCACGUCGCGGCCCCUGUCAGAUUCUGGUGAAUCUGCGAAUUCUGCUGU

The variants in the series derive from B1. Put plainly: self-cleavage, relative activity (ratio to wild type); higher = more cleavage; co-transcriptional.
For the variant GGGGGCCACAGCAGAAGCGUUCACGACGCGGCCCCUGUCAGAUUCUGGUGAAUCGGCGAAUUCUGCUGU [U26A U55G], the self-cleavage amounted to 0.44.

On to GGGGGCCACAGCAGAAGCGUUCACGACGCGGCCCCUGUCAGAUUCUGGUGAAUCCGCGAAUUCUGCUGU [U26A U55C], for which the self-cleavage worked out at 0.712.

Turning to GGGGGCCACAGCAGAAGCGUUCACGACGCGGCCCCUGUCAGAUUCUGAUGAAUCUGCGAAUUCUGCUGU [U26A G48A], the self-cleavage was found to be 0.846.

Regarding GGGGGCCACAGCAGAAGCGUUCACGACGCGGCCCCUGUCAGAUUCUGCUGAAUCUGCGAAUUCUGCUGU [U26A G48C], the self-cleavage was 0.882.

For GGGGGCCACAGCAGAAGCGUUCACGACGCGGCGCCUGUCAGAUUCUGGUGAAUCUGCGAAUUCUGCUGU [U26A C33G], the self-cleavage amounted to 0.395.

Turning to GGGGGCCACAGCAGAAGCGUUCACGACGCGGCCCCUGUCAGAUUCUGGUGAGUCUGCGAAUUCUGCUGU [U26A A52G], the self-cleavage was 0.825.

With GGGGGCCACAGCAGAAGCGUUCACGACGCGGCCCCUGUCAGAUUCUGGUGAUUCUGCGAAUUCUGCUGU [U26A A52U], the self-cleavage was 0.816.

With GGGGGCCACAGCAGAAGCGUUCACGACGCGGCCCCUGUCAGAUUCUGGUGACUCUGCGAAUUCUGCUGU [U26A A52C], the self-cleavage amounted to 0.9.

Consider GGGGGCCACAGCAGAAGCGUUCACGACGCGGCCCCUGUCAGAUUCUGGUGAAUCUGCGAAUUCUACUGU [U26A G65A], for which the self-cleavage is 0.736.

Take GGGGGCCACAGCAGAAGCGUUCACGACGCGGCCCCUGUCGGAUUCUGGUGAAUCUGCGAAUUCUGCUGU [U26A A40G]: the self-cleavage was found to be 0.7.

As for GGGGGCCACAGCAGAAGCGUUCACGACGCGGCCCCUGUCCGAUUCUGGUGAAUCUGCGAAUUCUGCUGU [U26A A40C], the self-cleavage is 0.32.

Take GGGGGCCACAGCAGAAGCGUUCACGACGCGGCCCCUGUCACAUUCUGGUGAAUCUGCGAAUUCUGCUGU [U26A G41C]: the self-cleavage stood at 0.54.

Consider GGGGGCCACAGCAGAAGCGUUCACGACACGGCCCCUGUCAGAUUCUGGUGAAUCUGCGAAUUCUGCUGU [U26A G28A], for which the self-cleavage was 0.216.

GGGGGCCACAGCAGAAGCGUUCACGACCCGGCCCCUGUCAGAUUCUGGUGAAUCUGCGAAUUCUGCUGU [U26A G28C]: the self-cleavage came to 0.114.

For the variant GGGGGCCACAGCAGAAGCGUUCACGAGGCGGCCCCUGUCAGAUUCUGGUGAAUCUGCGAAUUCUGCUGU [U26A C27G], the self-cleavage came out at 0.121.

Regarding GGGGGCCACAGCAGAAGCGUUCACGAUGCGGCCCCUGUCAGAUUCUGGUGAAUCUGCGAAUUCUGCUGU [U26A C27U], the self-cleavage is 0.429.

Take GGGGGCCACAGCAGAAGCGUUCACGACGCGGCCCCUGUCAGAUUCAGGUGAAUCUGCGAAUUCUGCUGU [U26A U46A]: the self-cleavage was found to be 0.906.

In the case of GGGGGCCACAGCAGAAGCGUUCACGACGCGGCCCCUGUCAGAUUCGGGUGAAUCUGCGAAUUCUGCUGU [U26A U46G], the self-cleavage came to 0.895.

Regarding GGGGGCCACAGCAGAAGCGUUCACGACGCGGCCCCUGUCAGAUUCUGGUGAAUCUGCGAAUUCUGCUAU [U26A G68A], the self-cleavage came out at 0.941.

In the case of GGGGGCCACAGCAGAAGCGUUCACGACGCGGCCCCUGUCAGAUUCUGGUGAAUCUGCGGAUUCUGCUGU [U26A A59G], the self-cleavage was found to be 0.923.

With GGGGGCCACAGCAGAAGCGUUCACGACGCGGCCCCUGUCAGAUUCUGGUGAAUCUGCGUAUUCUGCUGU [U26A A59U], the self-cleavage came to 0.404.

On to GGGGGCCACAGCAGAAGCGUUCACUUCGCGGCCCCUGUCAGAUUCUGGUGAAUCUGCGAAUUCCGCUGU [G25U U64C], for which the self-cleavage stood at 0.103.

As for GGGGGCCACAGCAGAAGCGUUCACUUCGCGGCCCCUGUCAGAUUCUGGUGAAUCUGCGAAUUCAGCUGU [G25U U64A], the self-cleavage worked out at 0.132.

Consider GGGGGCCACAGCAGAAGCGUUCACGACGCGGCCGCUGUCAGAUUCUGGUGAAUCUGCGAAUUCUGCUGU [U26A C34G], for which the self-cleavage is 0.501.

For GGGGGCCACAGCAGAAGCGUUCACGACGCGGCCUCUGUCAGAUUCUGGUGAAUCUGCGAAUUCUGCUGU [U26A C34U], the self-cleavage was 0.93.

As to GGGGGCCACAGCAGAAGCGUUCACUUCGCGGCCCCUGUCAGAUUCUGGUGAAGCUGCGAAUUCUGCUGU [G25U U53G], the self-cleavage stood at 0.226.

With GGGGGCCACAGCAGAAGCGUUCACGACGCGGCCCCUUUCAGAUUCUGGUGAAUCUGCGAAUUCUGCUGU [U26A G37U], the self-cleavage came out at 0.222.

With GGGGGCCACAGCAGAAGCGUUCACGACGCGGCCCCUAUCAGAUUCUGGUGAAUCUGCGAAUUCUGCUGU [U26A G37A], the self-cleavage came out at 0.287.

On to GGGGGCCACAGCAGAAGCGUUCACGACGCGGCCCCUCUCAGAUUCUGGUGAAUCUGCGAAUUCUGCUGU [U26A G37C], for which the self-cleavage was 0.209.

In the case of GGGGGCCACAGCAGAAGCGUUCACGACGCGGCCCCGGUCAGAUUCUGGUGAAUCUGCGAAUUCUGCUGU [U26A U36G], the self-cleavage stood at 0.145.

As to GGGGGCCACAGCAGAAGCGUUCACGACGCGGCCCCAGUCAGAUUCUGGUGAAUCUGCGAAUUCUGCUGU [U26A U36A], the self-cleavage is 0.15.

For the variant GGGGGCCACAGCAGAAGCGUUCACGACGCGGCCCCCGUCAGAUUCUGGUGAAUCUGCGAAUUCUGCUGU [U26A U36C], the self-cleavage was 0.403.

With GGGGGCCACAGCAGAAGCGUUCACGACGCGGCCCCUGUCAGAUUCUGGUGAACCUGCGAAUUCUGCUGU [U26A U53C], the self-cleavage was 0.724.

Take GGGGGCCACAGCAGAAGCGUUCACGACGCGGCCCCUGUCAGAUUCUGGUGAAACUGCGAAUUCUGCUGU [U26A U53A]: the self-cleavage is 0.806.

In the case of GGGGGCCACAGCAGAAGCGUUCACGACGCGGCCCCUGUCAGAUUCUGGUGAAGCUGCGAAUUCUGCUGU [U26A U53G], the self-cleavage is 0.647.

Consider GGGGGCCACAGCAGAAGCGUUCACUUCGCGGCCCCUGUCAGAUUCUGGUGAAUCUGCGAAUUCUGCUGG [G25U U69G], for which the self-cleavage is 0.183.

Consider GGGGGCCACAGCAGAAGCGUUCACUUCGCGGCCCCUGUCAGAUUCUGGUGAAUCUGCGAAUUCUGCUGC [G25U U69C], for which the self-cleavage was determined as 0.263.

For GGGGGCCACAGCAGAAGCGUUCACGACGCAGCCCCUGUCAGAUUCUGGUGAAUCUGCGAAUUCUGCUGU [U26A G30A], the self-cleavage is 0.36.

For GGGGGCCACAGCAGAAGCGUUCACGACGCGGCCCCUGUCAGAUUCUGGUGAAUCUGUGAAUUCUGCUGU [U26A C57U], the self-cleavage was found to be 0.39.
